According to PMC8325310:
“And” between values parts separate entries of the source, which are not always exact repeats. Equal values may be shown once.

How the values were obtained:
[1] = biological target: NT*-Bri2 BRICHOS (human); assay: SEC; IMAC-purified NT*-Bri2 BRICHOS concentrated to 3.4 mg/mL, Superdex 200 26/600, 20 mM NaPi pH 8.0 with 0.2 mM EDTA; four peaks resolved (monomer, dimer, tetramer, higher oligomers)
[2] = biological target: recombinant human (rh) Bri2 BRICHOS (human); assay: SDS-PAGE under reducing and non-reducing conditions; SEC-isolated rh Bri2 BRICHOS species analysed by SDS-PAGE, reducing and non-reducing
[3] = biological target: recombinant human (rh) Bri2 BRICHOS (human); assay: SEC; Bri2 BRICHOS species after thrombin cleavage and reverse IMAC, Superdex 200 26/600 (oligomer, tetramer, dimer) or Superdex 75 26/600 (monomer), 20 mM NaPi pH 8.0 with 0.2 mM EDTA

Sequence of NT*-Bri2 BRICHOS (Q9Y287 132-236): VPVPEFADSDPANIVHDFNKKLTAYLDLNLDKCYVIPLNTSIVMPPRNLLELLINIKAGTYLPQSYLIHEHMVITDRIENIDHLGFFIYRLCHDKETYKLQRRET

Row | stoichiometry N [1] | stoichiometry N [2] | stoichiometry N [3] | Substance
1 | 2 and 4 | – | – | NT*-Bri2 BRICHOS (domain or fragment)
2 | – | 6 | 2 and 4 | recombinant human (rh) Bri2 BRICHOS (domain or fragment)
